This note sets out measurements from the Immune Epitope Database (IEDB).

For test [1], the target named is HLA-A*02:01. The test is described as follows: IEDB peptide-MHC binding, purified MHC/competitive/fluorescence; filed as Kd, often an IC50 or EC50 that approximates it; ≥ and ≤ were set here for values at or beyond the usual limits of such assays.
The next test deals with HLA-B*27:03. The description is as above.
The target in test [2] is HLA-B*18:01. Described as above.
A further test has as its target HLA-A*69:01. The description is as above.
Test [3] concerns the target HLA-B*46:01. Described as above.
For the next test, the target named is HLA-B*39:01. Described as above.
The target in test [4] is HLA-A*26:01. Described as above.
Test [5] deals with HLA-B*58:01. The description is as above.
The next test deals with HLA-A*24:03. As to the kind of experiment: IEDB peptide-MHC binding, purified MHC/direct/fluorescence; filed as Kd, often an IC50 or EC50 that approximates it; ≥ and ≤ were set here for values at or beyond the usual limits of such assays. To be noted: source organism: Ebola virus Yambio0403.
The next test has as its target HLA-A*29:02. The description is as above. To be noted: source organism: Ebola virus Yambio0403.
Test [6] deals with HLA-A*03:01. Described as above.
The target in another test is HLA-A*02:19. Described as above.
The target of the next test is HLA-A*02:03. Described as above.
Test [7] addresses HLA-B*15:01. The description is as above. To be noted: source organism: Zaire ebolavirus.
The target of a further test is HLA-A*68:02. Described as above.
The target of another test is HLA-A*02:16. Described as above.
A further test addresses HLA-A*02:11. Described as above.
In a further test the target is HLA-A*02:12. The description is as above.
Another test concerns the target HLA-B*15:42. As to the kind of experiment: IEDB peptide-MHC binding, purified MHC/competitive/fluorescence; filed as Kd, often an IC50 or EC50 that approximates it; ≥ and ≤ were set here for values at or beyond the usual limits of such assays. To be noted: source organism: Influenza A virus H3N2.
Test [8] concerns the target HLA-A*03:01. Described as above. To be noted: source organism: Influenza A virus H3N2.
In the next test the target is HLA-B*83:01. The test is described as above. To be noted: source organism: Influenza A virus H3N2.
Test [9] deals with HLA-A*31:01. Described as above. To be noted: source organism: Influenza A virus H3N2.
For another test, the target named is HLA-B*45:06. The description is as above. To be noted: source organism: Influenza A virus H3N2.
The next test concerns the target HLA-A*68:23. The test is described as above. To be noted: source organism: Influenza A virus H3N2.
Test [10] concerns the target HLA-B*15:01. Described as above.
A further test deals with HLA-B*27:05. As to the kind of experiment: IEDB peptide-MHC binding, purified MHC/direct/fluorescence; filed as Kd, often an IC50 or EC50 that approximates it; ≥ and ≤ were set here for values at or beyond the usual limits of such assays. To be noted: source organism: Burkholderia mallei.
The target in the next test is HLA-A*26:03. Described as above. To be noted: source organism: Burkholderia mallei ATCC 23344.
Test [11] concerns the target HLA-A*02:01. Described as above. To be noted: source organism: Burkholderia mallei.
For a further test, the target named is HLA-B*07:02. The description is as above. To be noted: source organism: Burkholderia mallei.
The next test deals with HLA-B*15:17. The description is as above. To be noted: source organism: Burkholderia mallei.
A further test deals with HLA-A*01:01. The description is as above. To be noted: source organism: Burkholderia mallei.
The next test addresses HLA-B*48:01. The description is as above. To be noted: source organism: Burkholderia mallei.
The target in test [12] is HLA-B*18:01. Described as above. To be noted: source organism: Burkholderia mallei.
Test [13] addresses HLA-B*46:01. The test is described as above. To be noted: source organism: Burkholderia mallei.
The target in test [14] is HLA-A*31:01. The test is described as above. To be noted: source organism: Burkholderia mallei.
The next test deals with HLA-B*40:01. The description is as above. To be noted: source organism: Burkholderia mallei.
The next test addresses HLA-A*11:01. The test is described as above. To be noted: source organism: Burkholderia mallei.
Test [15] addresses HLA-A*26:01. Described as above. To be noted: source organism: Burkholderia mallei ATCC 23344.
For test [16], the target named is HLA-B*58:01. Described as above. To be noted: source organism: Burkholderia mallei.
The next test deals with HLA-B*57:01. Described as above. To be noted: source organism: Burkholderia mallei.
The target in the next test is HLA-B*51:01. As to the kind of experiment: IEDB peptide-MHC binding, purified MHC/competitive/fluorescence; filed as Kd, often an IC50 or EC50 that approximates it; ≥ and ≤ were set here for values at or beyond the usual limits of such assays. To be noted: source organism: Orthohantavirus andesense.
Test [17] deals with HLA-B*58:01. The test is described as follows: IEDB peptide-MHC binding, purified MHC/competitive/fluorescence; ≥ and ≤ were set here for values at or beyond the usual limits of such assays. To be noted: source organism: Homo sapiens.
Where [18] appears, read: source organism: Zaire ebolavirus.
[19] abbreviates: source organism: Ebola virus Yambio0403.
[20] abbreviates: source organism: Burkholderia mallei.
The mark [21] stands for this setting: source organism: Orthohantavirus andesense.
The mark [22] stands for this setting: source organism: Orthohantavirus puumalaense.

pIC50, pKd: −log10 of the molar value.

In general, pKd refers to the Kd on a negative log10 scale, so that one unit is a factor of ten. As to ESLLHQASW, the negative logarithm of the Kd (pKd) in the test with HLA-A*02:01 [1] (setting [18]), with HLA-B*27:03 (setting [18]), with HLA-B*18:01 [2] (setting [18]), with HLA-A*69:01 (setting [18]), in the test with HLA-B*46:01 [3] (setting [18]) and with HLA-B*39:01 (setting [18]) was at most 4.70 in each case. Besides, the negative logarithm of the Kd (pKd) with HLA-A*26:01 [4] (setting [18]) is at most 4.70; with HLA-B*58:01 [5] (setting [18]) it was 8.68; with HLA-A*24:03, at most 4.70; with HLA-A*29:02, at most 4.70; with HLA-A*03:01 [6] (setting [19]), at most 4.70; with HLA-A*02:19 (setting [19]) it was at most 4.70. In addition, the pKd with HLA-A*02:03 (setting [19]), with HLA-B*15:01 [7], in the test with HLA-A*68:02 (setting [19]), with HLA-A*02:16 (setting [19]), with HLA-A*02:11 (setting [19]) and with HLA-A*02:12 (setting [19]) was at most 4.70 in each case.

Regarding FSFGGFTFK, the pKd with HLA-B*15:42 was at most 5.30; in the test with HLA-A*03:01 [8] it was 8.43; with HLA-B*83:01 it was at most 5.30; with HLA-A*31:01 [9], at least 9.00; with HLA-B*45:06, at most 5.30; with HLA-A*68:23, 7.66.

With IQRRGAQFQ, the negative logarithm of the Kd (pKd) with HLA-B*15:01 [10] (source organism: Burkholderia mallei SAVP1) is 5.50; in the test with HLA-B*27:05, at most 4.70; with HLA-A*26:03, at most 4.70; with HLA-A*02:01 [11] it was at most 4.70; in the test with HLA-B*07:02, at most 4.70; with HLA-B*15:17 it was at most 4.70. Also, the pKd with HLA-A*01:01, with HLA-B*48:01, in the test with HLA-A*03:01 [6] (setting [20]), in the test with HLA-B*18:01 [12], in the test with HLA-A*68:02 (setting [20]) and with HLA-B*46:01 [13] was at most 4.70 in each case. Moreover, the pKd with HLA-A*31:01 [14], with HLA-B*40:01, in the test with HLA-A*11:01, in the test with HLA-A*26:01 [15], with HLA-B*58:01 [16] and with HLA-B*57:01 was at most 4.70 each time.

Take QIQAGNFHW: the pKd with HLA-A*02:01 [1] (setting [21]), in the test with HLA-B*51:01, with HLA-B*27:03 (setting [21]), with HLA-B*18:01 [2] (setting [21]), in the test with HLA-B*15:01 [10] (setting [21]) and in the test with HLA-A*69:01 (setting [21]) was at most 4.70 throughout. In addition, the pKd is at most 4.70 in the test with HLA-B*46:01 [3] (setting [21]); at most 4.70 with HLA-B*39:01 (setting [21]); at most 4.70 with HLA-A*26:01 [4] (setting [21]); 8.66 with HLA-B*58:01 [5] (setting [21]); at most 4.70 in the test with HLA-A*03:01 [6] (setting [22]); at most 4.70 with HLA-A*02:19 (setting [22]). The negative logarithm of the Kd (pKd) with HLA-A*02:03 (setting [22]), with HLA-A*68:02 (setting [22]), in the test with HLA-A*02:16 (setting [22]), with HLA-A*02:11 (setting [22]) and with HLA-A*02:12 (setting [22]) was at most 4.70 throughout.

Usually pIC50 stands for the negative decadic logarithm of the IC50, by convention in mol/L. High values mean a small IC50, low ones a large IC50. On to QSSGSSSSGF, for which the pIC50 with HLA-B*58:01 [17] was at most 4.70.
